Positions count from the first letter of the chain named. In names and notes the source's numbering stands.
T1: Clb2 (wild-type), 6xHis-tagged (S. cerevisiae, UniProt P24869 1-491)
T1 sequence: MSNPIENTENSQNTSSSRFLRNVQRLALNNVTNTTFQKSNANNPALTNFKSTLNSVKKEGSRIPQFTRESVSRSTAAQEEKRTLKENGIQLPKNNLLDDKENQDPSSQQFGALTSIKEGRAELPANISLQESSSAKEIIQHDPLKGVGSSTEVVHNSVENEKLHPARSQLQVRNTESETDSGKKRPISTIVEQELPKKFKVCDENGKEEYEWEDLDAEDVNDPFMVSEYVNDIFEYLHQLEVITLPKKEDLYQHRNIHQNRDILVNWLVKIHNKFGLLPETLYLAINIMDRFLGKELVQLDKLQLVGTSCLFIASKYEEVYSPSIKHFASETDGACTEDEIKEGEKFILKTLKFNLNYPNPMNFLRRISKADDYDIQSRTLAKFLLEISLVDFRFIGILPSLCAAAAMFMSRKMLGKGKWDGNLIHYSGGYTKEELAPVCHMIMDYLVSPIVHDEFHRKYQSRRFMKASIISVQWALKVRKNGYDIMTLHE

T2: Clb2-pp mutant (R366A, R379A, K383A), 6xHis-tagged (S. cerevisiae, UniProt P24869 1-491, R366A | R379A | K383A)
T2 sequence: T1 sequence with R366A, R379A, K383A

B1: Cks1 (wild-type) (natural protein)
chain: MYHHYHAFQGRKLTDQERARVLEFQDSIHYSPRYSDDNYEYRHVMLPKAMLKVIPSDYFNSEVGTLRILTEDEWRGLGITQSLGWEHYECHAPEPHILLFKRPLNYEAELRAATAAAQQQQQQQQQQQQQQQQHQTQSISNDMQVPPQIS
B2: Cks1 mutant (R33E, S82E, R102A) (natural protein)
chain: B1 chain with R33E, S82E, R102A
B3: Cdk1 (Cdc28), T169-phosphorylated, from a GST-TEV-Cdk1 fusion (enzyme)
chain: not shown
modifications: phosphothreonine at T169 (by Cak1)

Tests used:
Assay in all cases: reconstitution of a complex by mixing purified proteins
[1] = target: Clb2-Cdk1 complex (wild-type Clb2) (S. cerevisiae, UniProt P24869;P00546, phosphothreonine at T169 (by Cak1))
Chain of Clb2-Cdk1 complex (wild-type Clb2) (P00546 whole entry, one chain of several): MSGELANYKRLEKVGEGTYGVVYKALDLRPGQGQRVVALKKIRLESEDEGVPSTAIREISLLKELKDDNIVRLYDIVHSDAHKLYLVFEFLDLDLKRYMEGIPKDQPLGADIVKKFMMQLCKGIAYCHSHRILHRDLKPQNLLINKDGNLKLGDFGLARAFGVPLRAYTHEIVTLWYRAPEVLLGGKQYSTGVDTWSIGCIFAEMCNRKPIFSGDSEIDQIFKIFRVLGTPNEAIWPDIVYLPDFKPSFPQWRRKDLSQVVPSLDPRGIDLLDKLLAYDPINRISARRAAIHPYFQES

[2] = target: T1, Clb2 (wild-type), 6xHis-tagged
[3] = target: T2, Clb2-pp mutant (R366A, R379A, K383A), …

| Binder | binding result [1] | binding result [2] | binding result [3] |
| --- | --- | --- | --- |
| B1 | binds | – | – |
| B2 | binds | – | – |
| B3 | – | binds | binds |

Reference: article PMC10925351 (bioRxiv, 2025)
